For the data set, the system named is HeLa Kyoto. Put plainly: melting temperature (median over replicates), in situ; higher = more thermally stable.
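Further: HeLa Kyoto cells synchronized by double thymidine or nocodazole block, proteins quantified by TMT10plex mass spectrometry, three independent biological replicates.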

For the setting “cell cycle stage: mitosis”, “MEPGTNSFRVEFPDFSSTILQKLNQQRQQGQLCDVSIVVQGHIFRAHKAVLAASSPYFCDQVLLKNSRRIVLPDVMNPRVFENILLSSYTGRLVMPAPEIVSYLTAASFLQMWHVVDKCTEVLEGNPTVLCQKLNHGSDHQSPSSSSYNGLVESFELGSGGHTDFPKAQELRDGENEEESTKDELSSQLTEHEYLPSNSSTEHDRLSTEMASQDGEEGASDSAEFHYTRPMYSKPSIMAHKRWIHVKPERLEQACEGMDVHATYDEHQVTESINTVQTEHTVQPSGVEEDFHIGEKKVEAEFDEQADESNYDEQVDFYGSSMEEFSGERSDGNLIGHRQEAALAAGYSENIEMVTGIKEEASHLGFSATDKLYPCQCGKSFTHKSQRDRHMSMHLGLRPYGCGVCGKKFKMKHHLVGHMKIHTGIKPYECNICAKRFMWRDSFHRHVTSCTKSYEAAKAEQNTTEAN [ZBTB43]” had a melting temperature of 55 °C.
Regarding “MGAKQSGPAAANGRTRAYSGSDLPSSSSGGANGTAGGGGGARAAAAGRFPAQVPSAHQPSASGGAAAAAAAPAAPAAPRSRSLGGAVGSVASGARAAQSPFSIPNSSSGPYGSQDSVHSSPEDGGGGRDRPVGGSPGGPRLVIGSLPAHLSPHMFGGFKCPVCSKFVSSDEMDLHLVMCLTKPRITYNEDVLSKDAGECAICLEELQQGDTIARLPCLCIYHKGCIDEWFEVNRSCPEHPSD [ZNRF2]”, the melting temperature was 52.7 °C (cell cycle stage: G1/S) and 55.1 °C (cell cycle stage: mitosis).
As for “MGEFKVHRVRFFNYVPSGIRCVAYNNQSNRLAVSRTDGTVEIYNLSANYFQEKFFPGHESRATEALCWAEGQRLFSAGLNGEIMEYDLQALNIKYAMDAFGGPIWSMAASPSGSQLLVGCEDGSVKLFQITPDKIQFERNFDRQKSRILSLSWHPSGTHIAAGSIDYISVFDVKSGSAVHKMIVDRQYMGVSKRKCIVWGVAFLSDGTIISVDSAGKVQFWDSATGTLVKSHLIANADVQSIAVADQEDSFVVGTAEGTVFHFQLVPVTSNSSEKQWVRTKPFQHHTHDVRTVAHSPTALISGGTDTHLVFRPLMEKVEVKNYDAALRKITFPHRCLISCSKKRQLLLFQFAHHLELWRLGSTVATGKNGDTLPLSKNADHLLHLKTKGPENIICSCISPCGSWIAYSTVSRFFLYRLNYEHDNISLKRVSKMPAFLRSALQILFSEDSTKLFVASNQGALHIVQLSGGSFKHLHAFQPQSGTVEAMCLLAVSPDGNWLAASGTSAGVHVYNVKQLKLHCTVPAYNFPVTAMAIAPNTNNLVIAHSDQQVFEYSIPDKQYTDWSRTVQKQGFHHLWLQRDTPITHISFHPKRPMHILLHDAYMFCIIDKSLPLPNDKTLLYNPFPPTNESDVIRRRTAHAFKISKIYKPLLFMDLLDERTLVAVERPLDDIIAQLPPPIKKKKFGT [UTP4]”, the melting temperature came to 54.3 °C (cell cycle stage: G1/S) and 52.3 °C (cell cycle stage: mitosis).
Where the note is “cell cycle stage: mitosis”, “MGLLDRLSVLLGLKKKEVHVLCLGLDNSGKTTIINKLKPSNAQSQNILPTIGFSIEKFKSSSLSFTVFDMSGQGRYRNLWEHYYKEGQAIIFVIDSSDRLRMVVAKEELDTLLNHPDIKHRRIPILFFANKMDLRDAVTSVKVSQLLCLENIKDKPWHICASDAIKGEGLQEGVDWLQDQIQTVKT [ARL6]” yielded a melting temperature of 50.3 °C.
As for “MKVLGRSFFWVLFPVLPWAVQAVEHEEVAQRVIKLHRGRGVAAMQSRQWVRDSCRKLSGLLRQKNAVLNKLKTAIGAVEKDVGLSDEEKLFQVHTFEIFQKELNESENSVFQAVYGLQRALQGDYKDVVNMKESSRQRLEALREAAIKEETEYMELLAAEKHQVEALKNMQHQNQSLSMLDEILEDVRKAADRLEEEIEEHAFDDNKSVKGVNFEAVLRVEEEEANSKQNITKREVEDDLGLSMLIDSQNNQYILTKPRDSTIPRADHHFIKDIVTIGMLSLPCGWLCTAIGLPTMFGYIICGVLLGPSGLNSIKSIVQVETLGEFGVFFTLFLVGLEFSPEKLRKVWKISLQGPCYMTLLMIAFGLLWGHLLRIKPTQSVFISTCLSLSSTPLVSRFLMGSARGDKEGDIDYSTVLLGMLVTQDVQLGLFMAVMPTLIQAGASASSSIVVEVLRILVLIGQILFSLAAVFLLCLVIKKYLIGPYYRKLHMESKGNKEILILGISAFIFLMLTVTELLDVSMELGCFLAGALVSSQGPVVTEEIATSIEPIRDFLAIVFFASIGLHVFPTFVAYELTVLVFLTLSVVVMKFLLAALVLSLILPRSSQYIKWIVSAGLAQVSEFSFVLGSRARRAGVISREVYLLILSVTTLSLLLAPVLWRAAITRCVPRPERRSSL [TMCO3]”, the melting temperature is 54.4 °C (cell cycle stage: G1/S) and 52.9 °C (cell cycle stage: mitosis).
Take “MLAGAGRPGLPQGRHLCWLLCAFTLKLCQAEAPVQEEKLSASTSNLPCWLVEEFVVAEECSPCSNFRAKTTPECGPTGYVEKITCSSSKRNEFKSCRSALMEQRLFWKFEGAVVCVALIFACLVIIRQRQLDRKALEKVRKQIESI [JTB]”: the melting temperature (cell cycle stage: mitosis) came to 53.4 °C.
On the same count and under the same terms, the figure for “MLQQDSNDDTEDVSLFDAEEETTNRPRKAKIRHPVASFFHLFFRVSAIIVYLLCGLLSSSFITCMVTIILLLSCDFWAVKNVTGRLMVGLRWWNHIDEDGKSHWVFESRKESSQENKTVSEAESRIFWLGLIACPVLWVIFAFSALFSFRVKWLAVVIMGVVLQGANLYGYIRCKVRSRKHLTSMATSYFGKQFLRQNTGDDQTS [TVP23B]” is 56 °C.
Consider “MLRRVTVAAVCATRRKLCEAGRELAALWGIETRGRCEDSAAARPFPILAMPGRNKAKSTCSCPDLQPNGQDLGENSRVARLGADESEEEGRRGSLSNAGDPEIVKSPSDPKQYRYIKLQNGLQALLISDLSNMEGKTGNTTDDEEEEEVEEEEEDDDEDSGAEIEDDDEEGFDDEDEFDDEHDDDLDTEDNELEELEERAEARKKTTEKQSAAALCVGVGSFADPDDLPGLAHFLEHMVFMGSLKYPDENGFDAFLKKHGGSDNASTDCERTVFQFDVQRKYFKEALDRWAQFFIHPLMIRDAIDREVEAVDSEYQLARPSDANRKEMLFGSLARPGHPMGKFFWGNAETLKHEPRKNNIDTHARLREFWMRYYSSHYMTLVVQSKETLDTLEKWVTEIFSQIPNNGLPRPNFGHLTDPFDTPAFNKLYRVVPIRKIHALTITWALPPQQQHYRVKPLHYISWLVGHEGKGSILSFLRKKCWALALFGGNGETGFEQNSTYSVFSISITLTDEGYEHFYEVAYTVFQYLKMLQKLGPEKRIFEEIRKIEDNEFHYQEQTDPVEYVENMCENMQLYPLQDILTGDQLLFEYKPEVIGEALNQLVPQKANLVLLSGANEGKCDLKEKWFGTQYSIEDIENSWAELWNSNFELNPDLHLPAENKYIATDFTLKAFDCPETEYPVKIVNTPQGCLWYKKDNKFKIPKAYIRFHLISPLIQKSAANVVLFDIFVNILTHNLAEPAYEADVAQLEYKLVAGEHGLIIRVKGFNHKLPLLFQLIIDYLAEFNSTPAVFTMITEQLKKTYFNILIKPETLAKDVRLLILEYARWSMIDKYQALMDGLSLESLLSFVKEFKSQLFVEGLVQGNVTSTESMDFLKYVVDKLNFKPLEQEMPVQFQVVELPSGHHLCKVKALNKGDANSEVTVYYQSGTRSLREYTLMELLVMHMEEPCFDFLRTKQTLGYHVYPTCRNTSGILGFSVTVGTQATKYNSEVVDKKIEEFLSSFEEKIENLTEEAFNTQVTALIKLKECEDTHLGEEVDRNWNEVVTQQYLFDRLAHEIEALKSFSKSDLVNWFKAHRGPGSKMLSVHVVGYGKYELEEDGTPSSEDSNSSCEVMQLTYLPTSPLLADCIIPITDIRAFTTTLNLLPYHKIVK [NRDC]”, for which the melting temperature (cell cycle stage: G1/S) was 50.5 °C and the melting temperature (cell cycle stage: mitosis) was 50.9 °C.
On to “MLVTAYLAFVGLLASCLGLELSRCRAKPPGRACSNPSFLRFQLDFYQVYFLALAADWLQAPYLYKLYQHYYFLEGQIAILYVCGLASTVLFGLVASSLVDWLGRKNSCVLFSLTYSLCCLTKLSQDYFVLLVGRALGGLSTALLFSAFEAWYIHEHVERHDFPAEWIPATFARAAFWNHVLAVVAGVAAEAVASWIGLGPVAPFVAAIPLLALAGALALRNWGENYDRQRAFSRTCAGGLRCLLSDRRVLLLGTIQALFESVIFIFVFLWTPVLDPHGAPLGIIFSSFMAASLLGSSLYRIATSKRYHLQPMHLLSLAVLIVVFSLFMLTFSTSPGQESPVESFIAFLLIELACGLYFPSMSFLRRKVIPETEQAGVLNWFRVPLHSLACLGLLVLHDSDRKTGTRNMFSICSAVMVMALLAVVGLFTVVRHDAELRVPSPTEEPYAPEL [MFSD5]”, for which, under “cell cycle stage: mitosis”, the melting temperature is 54.9 °C.

The values are drawn from the supplement of paper PMC5998384.
